What was measured:
diabetic db/db mice = experiment: overnight fast and IPGTT in diabetic mice after SC administration; type: in vivo; conditions: SC at 9 pm, fasted overnight; GLP-1-Tf 1 or 10 mg
Description: A group of diabetic mice were given Tf or GLP-1-Tf via SC administration at 9 pm, fasted overnight and an IPGTT performed the next morning. The fasted Tf-treated animals had lower fasting blood glucose than ad libitum fed animals (238±39 versus 358±23 mg/dl; compare 0 time/fasted animals of FIG. 10c with 0 time/fed animals of FIG. 10a), and additionally, the animals given 1 or […] had lower fasting blood glucose (132±27 mg/dl) than those given Tf alone.

db/db mice = experiment: β-cell proliferation (BrdU) and β-cell mass in db/db mice; type: in vivo; conditions: 10 mg/kg IP, third day
Description: db/db mice, 6 per time point, received one IP injection of Tf (10 mg/kg) or GLP-1-Tf (10 mg/kg) and were sacrificed 1, 2 and 3 days later for measurement of β-cell proliferation and 3, 5, 8 and 10 days later for measurement of islet mass. Sixty mg/kg 5-bromo-2-deoxyuridine (BrdU, Sigma) was injected IP 6 hours before sacrifice. BrdU is a thymidine analog that is incorporated during S-phase of cell mitosis. Pancreata were removed, fixed overnight in 4% buffered formalin, processed for embedding in paraffin and histological sections (4 μm) mounted on poly-1-lysine-coated glass slides. BrdU was detected with a BrdU antibody (Sigma, 1:500 and also confirmed with Zymed antibody, 1:250) and BrdU staining kit (Zymed Laboratories Inc). Five to six hundred islets from each condition were then visualized and the number of islets that contained BrdU+ cells as well as the percent BrdU+ nuclei per total number of islet cells was quantified. For insulin staining and determination of β-cell mass histological sections were treated with a guinea-pig insulin antibody (Linco). […] The total pancreatic area and β-cell positive area for every image were quantified using MetaMorph 4.6.3 software (Universal Imaging Inc., West Chester).

B1: Tf: transferrin with the two N-linked glycosylation sites eliminated, expressed in S. cerevisiae; control protein (protein)
chain: VPDKTVRWCAVSEHEATKCQSFRDHMKSVIPSDGPSVACVKKASYLDCIRAIAANEADAVTLDAGLVYDAYLAPNNLKPVVAEFYGSKEDPQTFYYAVAVVKKDSGFQMNQLRGKKSCHTGLGRSAGWNIPIGLLYCDLPEPRKPLEKAVANFFSGSCAPCADGTDFPQLCQLCPGCGCSTLNQYFGYSGAFKCLKDGAGDVAFVKHSTIFENLANKADRDQYELLCLDNTRKPVDEYKDCHLAQVPSHTVVARSMGGKEDLIWELLNQAQEHFGKDKSKEFQLFSSPHGKDLLFKDSAHGFLKVPPRMDAKMYLGYEYVTAIRNLREGTCPEAPTDECKPVKWCALSHHERLKCDEWSVNSVGKIECVSAETTEDCIAKIMNGEADAMSLDGGFVYIAGKCGLVPVLAENYNKADNCEDTPEAGYFAVAVVKKSASDLTWDNLKGKKSCHTAVGRTAGWNIPMGLLYNKINHCRFDEFFSEGCAPGSKKDSSLCKLCMGSGLNLCEPNNKEGYYGYTGAFRCLVEKGDVAFVKHQTVPQNTGGKNPDPWAKNLNEKDYELLCLDGTRKPVEEYANCHLARAPNHAVVTRKDKEACVHKILRQQQHLFGSNVADCSGNFCLFRSETKDLLFRDDTVCLAKLHDRNTYEKYLGEEYVKAVGNLRKCSTSSLLEACTFRRP
Q: How did the fasting blood glucose (diabetic db/db mice) turn out when B1 was run?
A: The fasting blood glucose was 238 ± 39 mg/dL.

Q: What about the “islets with 1 or more BRDU+ nuclei” value (db/db mice) of the same molecule?
A: Its value is 35%.

From US20060205037A1, “Modified transferrin fusion proteins” (priority 2003, published 2006)
